From the supplement of paper PMC5998384

Legend:
[1] = system: HeLa Kyoto; assay: solubility change mitosis vs G1/S (difference of NP-40 vs SDS log2 ratios) (log2 ratio difference); higher = more soluble in mitosis
[2] = system: HeLa Kyoto; assay: solubility in G1/S (NP-40 vs SDS abundance) (log2 ratio); higher = more soluble; conditions: cell cycle stage: G1/S
[3] = system: HeLa Kyoto; assay: melting temperature (median over replicates), in situ; higher = more thermally stable
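Throughout, for melting temperature (median over replicates), in situ: HeLa Kyoto cells synchronized by double thymidine or nocodazole block, proteins quantified by TMT10plex mass spectrometry, three independent biological replicates.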
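Throughout, for solubility change mitosis vs G1/S (difference of NP-40 vs SDS log2 ratios): synchronized HeLa Kyoto cells (double thymidine block for G1/S, nocodazole release for mitosis), protein amounts in NP-40 versus SDS lysates quantified by mass spectrometry, three biological replicates.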
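Throughout, for solubility in G1/S (NP-40 vs SDS abundance): HeLa Kyoto cells arrested at G1/S by double thymidine block, proteins quantified by TMT10plex mass spectrometry in mild NP-40 versus SDS extracts, three biological replicates.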

Sequence | solubility change mitosis (log2) [1] | solubility in G1/S (log2) [2] | melting temperature ([3]; cell cycle stage: G1/S) [°C] | melting temperature ([3]; cell cycle stage: mitosis) [°C]
MGAQFSKTAAKGEAAAERPGEAAVASSPSKANGQENGHVKVNGDASPAAAESGAKEELQANGSAPAADKEEPAAAGSGAASPSAAEKGEPAAAAAPEAGASPVEKEAPAEGEAAEPGSPTAAEGEAASAASSTSSPKAEDGATPSPSNETPKKKKKRFSFKKSFKLSGFSFKKNKKEAGEGGEAEAPAAEGGKDEAAGGAAAAAAEAGAASGEQAAAPGEEAAAGEEGAAGGDPQEAKPQEAAVAPEKPPASDETKAAEEPSKVEEKKAEEAGASAAACEAPSAAGPGAPPEQEAAPAEEPAAAAASSACAAPSQEAQPECSPEAPPAEAAE [MARCKS] | 0.579 | -0.36 | 55.6 | 
MGDDQEDDFPRRLSESMEDLSLDLGALQGSEYLQDLGLGAPSHSQPGETPDSRPTGEEPGRDSLFSSLAGSQDLSRRRSWERSRSCSESWRRLSLDASAVDEEPCLPRTLASLALNLPGGGLKTWTQGCLSGGGTPAESPGKECDSPKKRGRSRSVPVSFYEIRSPEISPGLEVPTPPVQGLEPPVLECMEKDHVEPDHVLIVQQVLQELRQYHGARQRACMSASPGGAHSNLTWFEFLSESEDGAGKNEKSDKSTSVKRRLSCLRSRVTRQKEKGKSPAHLKDKGQDARERRECVNGHQLLQGTFSGPSSCPLCGKPFLSSASLKEHPRGTLLSDGSPALSRNVGMTVSQKGGPQPTPSPAGPGTQLGPITGEMDEADSAFLKFKQTADDSLSLTSPNTESIFVEDPYTASLRSEIESDGHEFEAESWSLAVDAAYAKKQKREVVKRQDVLYELMQTEVHHVRTLKIMLKVYSRALQEELQFSSKAIGRLFPCADDLLETHSHFLARLKERRQESLEEGSDRNYVIQKIGDLLVQQFSGENGERMKEKYGVFCSGHNEAVSHYKLLLQQNKKFQNLIKKIGNFSIVRRLGVQECILLVTQRITKYPVLVERIIQNTEAGTEDYEDLTQALNLIKDIISQVDAKVSECEKGQRLREIAGKMDLKSSSKLKNGLTFRKEDMLQRQLHLEGMLCWKTTSGRLKDILAILLTDVLLLLQEKDQKYVFASVDSKPPVISLQKLIVREVANEEKAMFLISASLQGPEMYEIYTSSKEDRNAWMAHIQRAVESCPDEEEGPFSLPEEERKVVEARATRLRDFQERLSMKDQLIAQSLLEKQQIYLEMAEMGGLEDLPQPRGLFRGGDPSETLQGELILKSAMSEIEGIQSLICRQLGSANGQAEDGGSSTGPPRRAETFAGYDCTNSPTKNGSFKKKVSSTDPRPRDWRGPPNSPDLKLSDSDIPGSSEESPQVVEAPGTESDPRLPTVLESELVQRIQTLSQLLLNLQAVIAHQDSYVETQRAAIQEREKQFRLQSTRGNLLLEQERQRNFEKQREERAALEKLQSQLRHEQQRWERERQWQHQELERAGARLQEREGEARQLRERLEQERAELERQRQAYQHDLERLREAQRAVERERERLELLRRLKKQNTAPGALPPDTLAEAQPPSHPPSFNGEGLEGPRVSMLPSGVGPEYAERPEVARRDSAPTENRLAKSDVPIQLLSATNQFQRQAAVQQQIPTKLAASTKGGKDKGGKSRGSQRWESSASFDLKQQLLLNKLMGKDESTSRNRRSLSPILPGRHSPAPPPDPGFPAPSPPPADSPSEGFSLKAGGTALLPGPPAPSPLPATPLSAKEDASKEDVIFF [ARHGEF18] | -0.0175 | 0.0647 | 51.9 | 51.1
MGEDAAQAEKFQHPGSDMRQEKPSSPSPMPSSTPSPSLNLGNTEEAIRDNSQVNAVTVLTLLDKLVNMLDAVQENQHKMEQRQISLEGSVKGIQNDLTKLSKYQASTSNTVSKLLEKSRKVSAHTRAVKERMDRQCAQVKRLENNHAQLLRRNHFKVLIFQEENEIPASVFVKQPVSGAVEGKEELPDENKSLEETLHTVDLSSDDDLPHDEEALEDSAEEKVEESRAEKIKRSSLKKVDSLKKAFSRQNIEKKMNKLGTKIVSVERREKIKKSLTSNHQKISSGKSSPFKVSPLTFGRKKVREGESHAENETKSEDLPSSEQMPNDQEEESFAEGHSEASLASALVEGEIAEEAAEKATSRGSNSGMDSNIDLTIVEDEEEESVALEQAQKVRYEGSYALTSEEAERSDGDPVQPAVLQVHQTS [SDPR] | 0.043 | -0.0681 | 53.9 | 53.4
MGEFKVHRVRFFNYVPSGIRCVAYNNQSNRLAVSRTDGTVEIYNLSANYFQEKFFPGHESRATEALCWAEGQRLFSAGLNGEIMEYDLQALNIKYAMDAFGGPIWSMAASPSGSQLLVGCEDGSVKLFQITPDKIQFERNFDRQKSRILSLSWHPSGTHIAAGSIDYISVFDVKSGSAVHKMIVDRQYMGVSKRKCIVWGVAFLSDGTIISVDSAGKVQFWDSATGTLVKSHLIANADVQSIAVADQEDSFVVGTAEGTVFHFQLVPVTSNSSEKQWVRTKPFQHHTHDVRTVAHSPTALISGGTDTHLVFRPLMEKVEVKNYDAALRKITFPHRCLISCSKKRQLLLFQFAHHLELWRLGSTVATGKNGDTLPLSKNADHLLHLKTKGPENIICSCISPCGSWIAYSTVSRFFLYRLNYEHDNISLKRVSKMPAFLRSALQILFSEDSTKLFVASNQGALHIVQLSGGSFKHLHAFQPQSGTVEAMCLLAVSPDGNWLAASGTSAGVHVYNVKQLKLHCTVPAYNFPVTAMAIAPNTNNLVIAHSDQQVFEYSIPDKQYTDWSRTVQKQGFHHLWLQRDTPITHISFHPKRPMHILLHDAYMFCIIDKSLPLPNDKTLLYNPFPPTNESDVIRRRTAHAFKISKIYKPLLFMDLLDERTLVAVERPLDDIIAQLPPPIKKKKFGT [CIRH1A] | 0.349 | -1.13 | 54.3 | 52.3
MGLCKCPKRKVTNLFCFEHRVNVCEHCLVANHAKCIVQSYLQWLQDSDYNPNCRLCNIPLASRETTRLVCYDLFHWACLNERAAQLPRNTAPAGYQCPSCNGPIFPPTNLAGPVASALREKLATVNWARAGLGLPLIDEVVSPEPEPLNTSDFSDWSSFNASSTPGPEEVDSASAAPAFYSQAPRPPASPGRPEQHTVIHMGNPEPLTHAPRKVYDTRDDDRTPGLHGDCDDDKYRRRPALGWLARLLRSRAGSRKRPLTLLQRAGLLLLLGLLGFLALLALMSRLGRAAADSDPNLDPLMNPHIRVGPS [ZFPL1] | -0.0676 | 0.256 | 57.4 | 
MGLFGKTQEKPPKELVNEWSLKIRKEMRVVDRQIRDIQREEEKVKRSVKDAAKKGQKDVCIVLAKEMIRSRKAVSKLYASKAHMNSVLMGMKNQLAVLRVAGSLQKSTEVMKAMQSLVKIPEIQATMRELSKEMMKAGIIEEMLEDTFESMDDQEEMEEEAEMEIDRILFEITAGALGKAPSKVTDALPEPEPPGAMAASEDEEEEEEALEAMQSRLATLRS [CHMP3] | -0.0644 | 0.866 | 51.4 | 51
MGPPRHPQAGEIEAGGAGGGRRLQVEMSSQQFPRLGAPSTGLSQAPSQIANSGSAGLINPAATVNDESGRDSEVSAREHMSSSSSLQSREEKQEPVVVRPYPQVQMLSTHHAVASATPVAVTAPPAHLTPAVPLSFSEGLMKPPPKPTMPSRPIAPAPPSTLSLPPKVPGQVTVTMESSIPQASAIPVATISGQQGHPSNLHHIMTTNVQMSIIRSNAPGPPLHIGASHLPRGAAAAAVMSSSKVTTVLRPTSQLPNAATAQPAVQHIIHQPIQSRPPVTTSNAIPPAVVATVSATRAQSPVITTTAAHATDSALSRPTLSIQHPPSAAISIQRPAQSRDVTTRITLPSHPALGTPKQQLHTMAQKTIFSTGTPVAAATVAPILATNTIPSATTAGSVSHTQAPTSTIVTMTVPSHSSHATAVTTSNIPVAKVVPQQITHTSPRIQPDYPAERSSLIPISGHRASPNPVAMETRSDNRPSVPVQFQYFLPTYPPSAYPLAAHTYTPITSSVSTIRQYPVSAQAPNSAITAQTGVGVASTVHLNPMQLMTVDASHARHIQGIQPAPISTQGIQPAPIGTPGIQPAPLGTQGIHSATPINTQGLQPAPMGTQQPQPEGKTSAVVLADGATIVANPISNPFSAAPAATTVVQTHSQSASTNAPAQGSSPRPSILRKKPATDGAKPKSEIHVSMATPVTVSMETVSNQNNDQPTIAVPPTAQQPPPTIPTMIAAASPPSQPAVALSTIPGAVPITPPITTIAAAPPPSVTVGGSLSSVLGPPVPEIKVKEEVEPMDIMRPVSAVPPLATNTVSPSLALLANNLSMPTSDLPPGASPRKKPRKQQHVISTEEGDMMETNSTDDEKSTAKSLLVKAEKRKSPPKEYIDEEGVRYVPVRPRPPITLLRHYRNPWKAAYHHFQRYSDVRVKEEKKAMLQEIANQKGVSCRAQGWKVHLCAAQLLQLTNLEHDVYERLTNLQEGIIPKKKAATDDDLHRINELIQGNMQRCKLVMDQISEARDSMLKVLDHKDRVLKLLNKNGTVKKVSKLKRKEKV [SAP130] | -0.0185 | 0.147 | 50.5 | 50
